Test results published in the RNAGym collection of RNA variant scans (doi:10.7554/elife.90254).

B1: OR4K15 (parent)
chain: GUUAACGGUCAUAGGCCAUGGAAACUAGGAGCACCAUUUCGCUGCCAGUGAAGAAAUGAACAAAGAAAAUCUGGGCCAGGCAGGCAUCAAAAGAAAUAGUCUUGCGCUCAACCAGAAAGUCUGUAAUCAUUUUAAGGGUA

Variants of: B1
Experiment: self-cleavage, relative activity (ratio to wild type); higher = more cleavage; in vitro, sequencing; the parent is a self-cleaving ribozyme
U12C U127C showed a self-cleavage of 0.62.
With A11G U43C the self-cleavage was 0.92.
A11G U43A gave a self-cleavage of 1.12.
For A11G U43G, the self-cleavage was 1.18.
Work on A11U A94G yielded a self-cleavage of 0.71.
A13G A56G gave a self-cleavage of 1.04.
A13G A56U showed a self-cleavage of 1.33.
U12C A67G showed a self-cleavage of 1.33.
With G14U U87C the self-cleavage was 1.48.
Work on U12C A111G yielded a self-cleavage of 0.03.
U12C U108C gave a self-cleavage of 0.03.
With U12C A134G the self-cleavage was 1.7.
For A11G U108C, the self-cleavage was 0.01.
In the case of A13U A82U, the self-cleavage is reported as 0.24.
A13C U139C gave a self-cleavage of 1.48.
A13U A18C gave a self-cleavage of 1.62.
With A13U A66G the self-cleavage was 1.49.
With U12C A59U the self-cleavage was 0.65.
A13G A69G gave a self-cleavage of 0.92.
A13G A95U showed a self-cleavage of 2.06.
With A13G A95G the self-cleavage was 1.
U12C A18G gave a self-cleavage of 0.87.
U12C A18U showed a self-cleavage of 1.3.
In the case of U12C A98G, the self-cleavage is reported as 0.74.
Variant U12C U124C has a self-cleavage of 0.67.
A13U C121A showed a self-cleavage of 1.92.
In the case of G14U A56G, the self-cleavage is reported as 1.18.
In the case of U12A A91G, the self-cleavage is reported as 1.57.
In the case of A11U A90U, the self-cleavage is reported as 1.19.
In the case of U12A C77U, the self-cleavage is reported as 1.45.
Variant A13G A89U has a self-cleavage of 1.09.
With A11U G15A the self-cleavage was 1.97.
For U12C A89C, the self-cleavage was 1.09.
A13U G73A gave a self-cleavage of 0.16.
In the case of A13G A67G, the self-cleavage is reported as 1.
Variant A13G A67C has a self-cleavage of 0.22.
In the case of U12C U97A, the self-cleavage is reported as 1.6.
Work on U12C A86G yielded a self-cleavage of 0.8.
Work on U12A A18G yielded a self-cleavage of 1.65.
With A11U U43C the self-cleavage was 1.44.
Work on G14A A33U yielded a self-cleavage of 1.16.
G14A A30G showed a self-cleavage of 2.84.
In the case of A11G G119A, the self-cleavage is reported as 2.11.
Work on U12A U38C yielded a self-cleavage of 1.4.
A13G G75C showed a self-cleavage of 0.43.
For G14A A18G, the self-cleavage was 1.29.
A13U A47U gave a self-cleavage of 1.24.
Work on U12C U37C yielded a self-cleavage of 1.04.
In the case of U12G G138A, the self-cleavage is reported as 1.44.
With A13G A140C the self-cleavage was 1.31.
Work on A13G A140G yielded a self-cleavage of 0.62.
Work on A13U U127C yielded a self-cleavage of 0.75.
A11U C16U gave a self-cleavage of 2.22.
In the case of A11U A24G, the self-cleavage is reported as 1.7.
Variant U12C A110U has a self-cleavage of 1.26.
Variant A11G U120A has a self-cleavage of 0.58.
A13G A47U gave a self-cleavage of 1.26.
With A11U A78G the self-cleavage was 0.31.
In the case of A11U A78U, the self-cleavage is reported as 0.49.
Work on A13G A118C yielded a self-cleavage of 0.41.
Variant A13U C105U has a self-cleavage of 0.23.
A11U A51G gave a self-cleavage of 1.48.
For A11U A54G, the self-cleavage was 0.
Work on U12C A129G yielded a self-cleavage of 0.89.
With A13G G104A the self-cleavage was 0.06.
Work on A11G U39A yielded a self-cleavage of 0.88.
U12C A24G gave a self-cleavage of 1.09.
Variant U12C U43A has a self-cleavage of 0.93.
With U12C U43C the self-cleavage was 1.34.
In the case of A13G U37A, the self-cleavage is reported as 0.82.
With A11G G79A the self-cleavage was 0.16.
With A13U G80C the self-cleavage was 0.26.
G14A A64G gave a self-cleavage of 1.06.
In the case of A13G U120A, the self-cleavage is reported as 1.9.
Variant A13G U120C has a self-cleavage of 0.6.
With A13G C109A the self-cleavage was 0.6.
G14A A66G gave a self-cleavage of 0.8.
G14A A23G gave a self-cleavage of 0.8.
In the case of A11G U19A, the self-cleavage is reported as 1.08.
For A11G U19C, the self-cleavage was 0.56.
In the case of A11G U132C, the self-cleavage is reported as 1.21.
Variant A11G U132A has a self-cleavage of 1.16.
U12A C34U showed a self-cleavage of 0.53.
A11U A18U gave a self-cleavage of 1.82.
In the case of U12A C109U, the self-cleavage is reported as 0.24.
Variant U12A A95G has a self-cleavage of 1.29.
U12C U57G showed a self-cleavage of 1.33.
A13C A135G gave a self-cleavage of 1.04.
U12A A94G showed a self-cleavage of 1.12.
In the case of A13G A27G, the self-cleavage is reported as 1.15.
U12C A68G gave a self-cleavage of 1.21.
In the case of A11G U37C, the self-cleavage is reported as 1.16.
Work on A11G U97G yielded a self-cleavage of 0.34.
With A13U A117G the self-cleavage was 2.05.
Work on U12A A118G yielded a self-cleavage of 1.04.
A11U U49A showed a self-cleavage of 0.68.
Variant A11U U49G has a self-cleavage of 1.14.
U12A A59U gave a self-cleavage of 0.95.
In the case of U12A G138A, the self-cleavage is reported as 1.5.
A11U A36U showed a self-cleavage of 0.78.
Variant A11U A33G has a self-cleavage of 0.98.
For G14A A78U, the self-cleavage was 0.22.
With A11U A98U the self-cleavage was 1.82.
For A13G A78G, the self-cleavage was 0.52.
A11G U127C showed a self-cleavage of 0.63.
With A13G A126U the self-cleavage was 0.88.
With U12A A33U the self-cleavage was 1.4.
In the case of U12A U103C, the self-cleavage is reported as 0.14.
In the case of A11G U103A, the self-cleavage is reported as 0.77.
Work on A11U A135U yielded a self-cleavage of 0.98.
For A11G U72C, the self-cleavage was 0.21.
For A11U C40A, the self-cleavage was 1.2.
U12A U131C gave a self-cleavage of 2.37.
In the case of U12C U131C, the self-cleavage is reported as 1.28.
Variant A13G U127A has a self-cleavage of 1.91.
For A11G G83A, the self-cleavage was 1.23.
Work on A13G A116G yielded a self-cleavage of 0.55.
For G14U A116G, the self-cleavage was 0.63.
Variant A11U U120C has a self-cleavage of 0.69.
Work on A13U A54G yielded a self-cleavage of 0.73.
U12C A96U gave a self-cleavage of 1.32.
A11U G84A gave a self-cleavage of 2.42.
In the case of A13G U130A, the self-cleavage is reported as 0.34.
For A13G U130C, the self-cleavage was 0.83.
Variant A11G G115U has a self-cleavage of 0.27.
A13G A91C showed a self-cleavage of 1.81.
A13G A91U gave a self-cleavage of 0.92.
A13G A91G gave a self-cleavage of 0.9.
A11G U87C showed a self-cleavage of 1.14.
G14A A36U showed a self-cleavage of 0.83.
A11U U103C gave a self-cleavage of 0.73.
With A13G G65A the self-cleavage was 1.2.
Work on U12C U38G yielded a self-cleavage of 1.22.
U12C U38C gave a self-cleavage of 1.73.
A11G U131G showed a self-cleavage of 1.52.
A13U A24G gave a self-cleavage of 1.06.
Variant A13G A51U has a self-cleavage of 0.66.
Variant A13C U120C has a self-cleavage of 1.78.
For A13C A60G, the self-cleavage was 1.39.
A13G U87A gave a self-cleavage of 0.92.
With G14C A118G the self-cleavage was 0.43.
A13U A67G gave a self-cleavage of 1.14.
G14U A54G gave a self-cleavage of 1.65.
For A13G U72C, the self-cleavage was 0.54.
Variant A13G A55G has a self-cleavage of 0.97.
Variant A13G A55U has a self-cleavage of 1.2.
U12C A135G showed a self-cleavage of 1.25.
U12C A135C showed a self-cleavage of 0.84.
G14A A140G gave a self-cleavage of 1.89.
With U12C U39C the self-cleavage was 1.21.
Work on A13C yielded a self-cleavage of 1.33.
A13G gave a self-cleavage of 0.79.
A13U showed a self-cleavage of 1.11.
Variant A13U A22U has a self-cleavage of 1.45.
A13U A22G showed a self-cleavage of 1.38.
Variant A13G A96G has a self-cleavage of 0.9.
Variant A11U A63U has a self-cleavage of 1.56.
Work on A11G G136U yielded a self-cleavage of 1.19.
In the case of U12A A63G, the self-cleavage is reported as 0.6.
With A13U A33C the self-cleavage was 2.21.
A11G U49G gave a self-cleavage of 1.21.
Variant A11G U49A has a self-cleavage of 0.88.
Work on A13G A111G yielded a self-cleavage of 0.15.
Work on A11U A64G yielded a self-cleavage of 1.56.
In the case of A11G U12C, the self-cleavage is reported as 1.07.
U12C A51G showed a self-cleavage of 0.87.
With A11U G58U the self-cleavage was 0.86.
